# Measurements taken from the supplement of paper PMC7125110.
# ± gives the standard error. Variants at the floor of the assay were thinned out.
# B1: glmS ribozyme (parent)
# chain: AUAAAAGCGCCAGAACUACAGAAAUGUAGUUGACGAGGAGGAGGUUUAUCGAAUUUUCGGCGGAUGCCUCCAAA
# Columns and labels:
# Conditions in all cases: with glucosamine-6-phosphate
# glucosamine-6-phosphate [1] = variants of: B1; assay: self-cleavage kobs at 160 uM GlcN6P; higher = faster cleavage; RNA array
# Method in brief: (§1)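 Tiles bearing barcoded ribozyme variants, transcribed in situ by E. coli RNA polymerase on sequenced MiSeq chips, were imaged over ~14 h at 37 °C using a hybridised Cy3 probe. Glucosamine-6-phosphate was supplied at 40 μM to 10 mM in HEPES/KCl/Mg(OAc)2 buffer. kobs came from one- or two-exponential decay fits to normalised per-tile medians, and weighted Michaelis–Menten fits then provided kcat and KM.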
# glucosamine-6-phosphate [2] = variants of: B1; assay: self-cleavage kobs at 640 uM GlcN6P; higher = faster cleavage; RNA array
# Method in brief: as §1
# glucosamine-6-phosphate [3] = variants of: B1; assay: self-cleavage kobs at 2500 uM GlcN6P; higher = faster cleavage; RNA array
# Method in brief: as §1
# glucosamine-6-phosphate [4] = variants of: B1; assay: self-cleavage kobs at 10000 uM GlcN6P; higher = faster cleavage; RNA array
# Method in brief: as §1
Variant,self-cleavage kobs at 160 uM GlcN6P (glucosamine-6-phosphate [1]) [s⁻¹],self-cleavage kobs at 640 uM GlcN6P (glucosamine-6-phosphate [2]) [s⁻¹],self-cleavage kobs at 2500 uM GlcN6P (glucosamine-6-phosphate [3]) [s⁻¹],self-cleavage kobs at 10000 uM GlcN6P (glucosamine-6-phosphate [4]) [s⁻¹]
G7C G32C G41U U47G U56C,< 1e-05,< 1e-05,< 1e-05,
G35C G60A C68A,< 1e-05,< 1e-05,,
G35A A48G G51C A64C,< 1e-05,,,
U30G G40A,0.000128 ± 3.7e-05,0.000261 ± 6.3e-05,0.000813 ± 0.00013,
A6G C50U U55C,< 1e-05,< 1e-05,< 1e-05,< 1e-05
A48G U49C G60A,< 1e-05,< 1e-05,< 1e-05,
C8U A15G G29A,< 1e-05,< 1e-05,< 1e-05,
G13C A36G G63C,< 1e-05,< 1e-05,,
C16A C34G U49A C50A,< 1e-05,,,
A15G U31A G35U C67G,< 1e-05,< 1e-05,< 1e-05,
G9A U30G G59C,< 1e-05,< 1e-05,,
G44C A64U,< 1e-05,,< 1e-05,
G35U U45G U46G A64G,< 1e-05,< 1e-05,< 1e-05,
G7U C11U G29U U30A,< 1e-05,< 1e-05,,
C10U G40A,< 1e-05,,,< 1e-05
G63A G66C,< 1e-05,< 1e-05,< 1e-05,< 1e-05
G32C G44A A48U,< 1e-05,< 1e-05,< 1e-05,
G29U G32A G37U G66A,< 1e-05,< 1e-05,< 1e-05,
A39G U46G A53C,5.35e-05 ± 2.3e-05,0.000315 ± 0.00012,,
C10G U45C,< 1e-05,,< 1e-05,
C8G C16A,< 1e-05,< 1e-05,< 1e-05,< 1e-05
A14G C16U U46C,0.000248 ± 7.7e-05,,,
A36G G41C A53U,< 1e-05,< 1e-05,,
U57G G62C A64U,< 1e-05,,< 1e-05,< 1e-05
A6U G32U,< 1e-05,< 1e-05,< 1e-05,
A6C G41U C68U C70A,< 1e-05,,3.76e-05 ± 1.6e-05,

Variant,self-cleavage kobs at 160 uM GlcN6P (glucosamine-6-phosphate [1]) [s⁻¹],self-cleavage kobs at 640 uM GlcN6P (glucosamine-6-phosphate [2]) [s⁻¹],self-cleavage kobs at 2500 uM GlcN6P (glucosamine-6-phosphate [3]) [s⁻¹],self-cleavage kobs at 10000 uM GlcN6P (glucosamine-6-phosphate [4]) [s⁻¹]
G9C A12C U31C,< 1e-05,< 1e-05,< 1e-05,
G40A A42C A48G,< 1e-05,< 1e-05,< 1e-05,< 1e-05
A6U G38U U47G,< 1e-05,,,
G7C A12G A33U G51U,< 1e-05,,,
G9A G29U A36C,< 1e-05,< 1e-05,< 1e-05,
A12U A15G C16U U31G C71U,0.000195 ± 6.7e-05,0.000442 ± 0.00015,0.000331 ± 0.0001,
A12G U49A G63U,< 1e-05,< 1e-05,,
G35C A42U G43A A52U,< 1e-05,< 1e-05,< 1e-05,
A6G U46C U57G,< 1e-05,,,
G32U A48G G63C,< 1e-05,,< 1e-05,
G9C C50G,0.00045 ± 0.00018,,,
C8A U31C A48U G51A G59C,< 1e-05,< 1e-05,< 1e-05,
G9C G51U,< 1e-05,< 1e-05,,< 1e-05
G29C U56G G66C,< 1e-05,< 1e-05,,
C10U A33G G51A A64C,< 1e-05,,,
G29C G35A G59U A64G,< 1e-05,,,
G7U G60C G66U,< 1e-05,,,
C11G U31C C71U,< 1e-05,,< 1e-05,
G29A G60A,< 1e-05,< 1e-05,,
A33U U47A G62U A64G C71U,< 1e-05,< 1e-05,,
A39C U49A C61U C68G,< 1e-05,,< 1e-05,
U49C G62U,< 1e-05,< 1e-05,< 1e-05,< 1e-05
G41U G63C,< 1e-05,,< 1e-05,< 1e-05
G29U U31A U56A C67A,2.97e-05 ± 1.5e-05,,,0.00027 ± 5.8e-05
A33C A36G,< 1e-05,< 1e-05,< 1e-05,< 1e-05
U31C U69A,4.12e-05 ± 1.4e-05,,5.91e-05 ± 1.4e-05,
